Laboratory results taken from patent publication US20240116985A1, “STAPLED PEPTIDES AND METHODS THEREOF” (priority 2020, published 2024).
Starred links: 1 amine or outer side, 2 acyl side, 3 side chain; linkers in the order of their positions; H or OH if unused. Positions of bridges follow the written chain, without caps; N, C: chain ends. Non-standard residues stand in square brackets, D forms with d. Primed or numbered codes have the meaning given here. No end group written: not given here. PyrS2″ = (S)-3-amino-1-((pent-4-en-1-yloxy)carbonyl)pyrrolidine-3-carboxylic acid (stapling residue), C=CCCCOC(=O)N1CC[C@@](N[*:1])(C(=O)[*:2])C1; B5(4) = 2,2-bis(4-pentenyl)glycine = 2-amino-2-(pent-4-en-1-yl)hept-6-enoic acid (stitching residue), C=CCCCC(CCCC=C)(N[*:1])C(=O)[*:2]; B5(5) = 2,2-bis(4-pentenyl)glycine, 2-amino-2-(pent-4-en-1-yl)hept-6-enoic acid (stitching residue), C=CCCCC(CCCC=C)(N[*:1])C(=O)[*:2]; PyrS2 = (S)-3-amino-1-((pent-4-en-1-yloxy)carbonyl)pyrrolidine-3-carboxylic acid, C=CCCCOC(=O)N1CC[C@@](N[*:1])(C(=O)[*:2])C1; SPip2 = 4-amino-1-((pent-4-en-1-yloxy)carbonyl)piperidine-4-carboxylic acid, C=CCCCOC(=O)N1CCC(N[*:1])(C(=O)[*:2])CC1; B5(25) = 2-amino-2-(pent-4-en-1-yl)hept-6-enoic acid (stitching residue), C=CCCCC(CCCC=C)(N[*:1])C(=O)[*:2]; B5 = 2-amino-2-(pent-4-en-1-yl)hept-6-enoic acid, C=CCCCC(CCCC=C)(N[*:1])C(=O)[*:2]; Phe(3-COOH) = N[C@@H](Cc1cccc(C(=O)O)c1)C(=O)O; Phe(2-CF3) = N[C@@H](Cc1ccccc1C(F)(F)F)C(=O)O; Phe(2-Cl) = N[C@@H](Cc1ccccc1Cl)C(=O)O; Phe(2-Me) = Cc1ccccc1C[C@H](N)C(=O)O; Bta = N[C@@H](Cc1csc2ccccc12)C(=O)O; αAllylPro = C=CC[C@@]1(C(=O)O)CCCN1; tBuAla = CC(C)(C)C[C@H](N)C(=O)O; 3Thi = N[C@@H](Cc1ccsc1)C(=O)O; Thr(ol) = C[C@@H](O)[C@H](N)CO; Aib = CC(C)(N)C(=O)O

B1: I-2593 (peptide)
peptide: Ac-[αAllylPro]D[tBuAla][B5]D[Phe(3-COOH)]QAFL[SPip2][3Thi][Bta]A-NH2
modifications: staple 1-4; staple 4-11 (inferred); also: later-eluting HPLC staple isomer composition
B2: I-2578 (peptide)
peptide: Ac-[αAllylPro]D[tBuAla][B5]D[Phe(3-COOH)][Aib]AFK(Ac)[PyrS2][3Thi][Bta]AA-NH2
modifications: staple 1-4, 4-11; not fully specified; printed as Ac-PL3-Asp-Npg-B5-Asp-3COOHF-Aib-Ala-Phe-AcLys-PyrS2-3Thi-BztA-Ala-Ala-NH2
B3: I-2577 (peptide)
peptide: Ac-[αAllylPro]D[tBuAla][B5(25)]D[Phe(3-COOH)][Aib]AFS[PyrS2″][3Thi][Bta]SA-NH2
modifications: staple 1-4, 4-11 (inferred); not fully specified; printed as Ac-PL3-Asp-Npg-B5-Asp-3COOHF-Aib-Ala-Phe-Ser-PyrS2-3Thi-BztA-Ser-Ala-NH2
B4: I-2576 (peptide)
peptide: Ac-[αAllylPro]D[tBuAla][B5(25)]D[Phe(3-COOH)][Aib]AF[dS][PyrS2″][3Thi][Bta][dS]A-NH2
modifications: staple 1-4, 4-11 (inferred); not fully specified; printed as Ac-PL3-Asp-Npg-B5-Asp-3COOHF-Aib-Ala-Phe-dSer-PyrS2-3Thi-BztA-dSer-Ala-NH2
B5: I-2579 (peptide)
peptide: Ac-[αAllylPro]D[tBuAla][B5]D[Phe(3-COOH)][Aib]AFK(Ac)[PyrS2][Phe(2-CF3)][Bta]AA-NH2
modifications: staple 1-4, 4-11; not fully specified; printed as Ac-PL3-Asp-Npg-B5-Asp-3COOHF-Aib-Ala-Phe-AcLys-PyrS2-2F3MeF-BztA-Ala-Ala-NH2
B6: I-2592 (peptide)
peptide: Ac-[αAllylPro]D[tBuAla][B5]D[Phe(3-COOH)]QAFL[SPip2][3Thi][Bta]A-NH2
modifications: staple 1-4; staple 4-11 (inferred); also: earlier-eluting HPLC staple isomer composition

Molecular target: full-length beta-Catenin (Uniprot ID P35222) (Homo sapiens (Human)) (UniProt P35222)
Experiment: FP competition, full-length beta-catenin, competitor probe 5FAM-TCF4 10-53
Target sequence in this assay (P35222 2-781 limits assumed): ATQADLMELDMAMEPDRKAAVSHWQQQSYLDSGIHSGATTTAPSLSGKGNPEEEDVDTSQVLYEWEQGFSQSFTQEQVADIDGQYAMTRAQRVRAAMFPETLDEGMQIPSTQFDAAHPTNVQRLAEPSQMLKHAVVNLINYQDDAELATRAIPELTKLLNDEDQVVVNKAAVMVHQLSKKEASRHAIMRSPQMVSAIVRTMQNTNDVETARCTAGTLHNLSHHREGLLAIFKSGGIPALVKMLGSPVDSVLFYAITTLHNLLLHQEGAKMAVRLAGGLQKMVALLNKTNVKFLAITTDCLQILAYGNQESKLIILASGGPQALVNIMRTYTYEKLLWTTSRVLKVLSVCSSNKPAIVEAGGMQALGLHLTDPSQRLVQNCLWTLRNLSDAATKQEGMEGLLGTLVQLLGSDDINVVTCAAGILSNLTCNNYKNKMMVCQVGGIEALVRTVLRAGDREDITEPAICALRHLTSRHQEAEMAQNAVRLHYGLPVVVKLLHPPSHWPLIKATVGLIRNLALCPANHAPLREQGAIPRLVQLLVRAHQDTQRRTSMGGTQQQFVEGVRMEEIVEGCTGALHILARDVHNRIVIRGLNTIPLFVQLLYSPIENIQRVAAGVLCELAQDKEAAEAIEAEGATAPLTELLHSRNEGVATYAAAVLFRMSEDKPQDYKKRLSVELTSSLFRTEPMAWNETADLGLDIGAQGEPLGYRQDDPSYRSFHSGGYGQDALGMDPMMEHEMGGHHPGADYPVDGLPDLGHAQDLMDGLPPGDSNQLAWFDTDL

First: [αAllylPro]D[tBuAla][B5(4)]D[Phe(3-COOH)]AAFF[PyrS2″][Phe(2-CF3)][Bta]Q-NH2 (staple 1-4; staple 4-11 (inferred)) [I-1341]
Second: [αAllylPro]D[tBuAla][B5(4)]D[Phe(3-COOH)]AAFF[PyrS2″][Phe(2-CF3)][Bta]S-NH2 (staple 1-4; staple 4-11 (inferred)) [I-1342]
The IC50 of the first is 2.1-fold lower: 17 nM for the first, 35 nM for the second.

Compared with [αAllylPro]D[tBuAla][B5(4)]D[Phe(3-COOH)]AAFF[PyrS2″][Phe(2-Cl)][Bta]Q-NH2 (staple 1-4; staple 4-11 (inferred)) [I-1338], [αAllylPro]D[tBuAla][B5(4)]D[Phe(3-COOH)]AAFF[PyrS2″][Phe(2-Cl)][Bta]S-NH2 (staple 1-4; staple 4-11 (inferred)) [I-1339] is 3.3-fold higher in IC50: 10 nM for the first, 33 nM for the second.

For [αAllylPro]D[tBuAla][B5(4)]D[Phe(3-COOH)]AAFF[PyrS2″][Phe(2-Cl)][Bta][Thr(ol)] (staple 1-4; staple 4-11 (inferred)) [I-1340], the IC50 was 159 nM.

Molecular target: Bcat-Halo (UniProt P35222)
Sequence (P35222 whole entry): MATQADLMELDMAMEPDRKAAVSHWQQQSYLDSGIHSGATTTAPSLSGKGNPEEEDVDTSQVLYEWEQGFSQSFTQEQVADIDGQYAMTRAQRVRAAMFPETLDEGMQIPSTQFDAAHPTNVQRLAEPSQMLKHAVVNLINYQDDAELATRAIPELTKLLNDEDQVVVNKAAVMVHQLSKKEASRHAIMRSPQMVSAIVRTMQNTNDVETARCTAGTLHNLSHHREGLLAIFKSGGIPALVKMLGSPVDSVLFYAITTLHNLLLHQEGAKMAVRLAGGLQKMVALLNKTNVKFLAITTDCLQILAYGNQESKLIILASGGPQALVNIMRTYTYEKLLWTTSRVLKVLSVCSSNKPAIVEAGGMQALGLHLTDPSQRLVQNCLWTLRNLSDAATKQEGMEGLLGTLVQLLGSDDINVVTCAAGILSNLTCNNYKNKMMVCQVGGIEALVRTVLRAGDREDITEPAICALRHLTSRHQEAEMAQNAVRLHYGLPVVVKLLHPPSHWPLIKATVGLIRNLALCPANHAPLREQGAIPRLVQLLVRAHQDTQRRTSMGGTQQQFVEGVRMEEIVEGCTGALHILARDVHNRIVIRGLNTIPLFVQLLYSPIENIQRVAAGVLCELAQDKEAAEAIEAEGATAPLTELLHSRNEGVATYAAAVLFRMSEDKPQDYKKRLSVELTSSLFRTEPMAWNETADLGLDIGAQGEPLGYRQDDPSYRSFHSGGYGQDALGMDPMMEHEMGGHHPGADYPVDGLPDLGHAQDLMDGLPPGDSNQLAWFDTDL
Experiment: NanoBRET absolute IC50, HEK293 cells, Bcat-Halo/TCF4-Luc engagement

First: [αAllylPro]D[tBuAla][B5(4)]D[Phe(3-COOH)]AAFF[PyrS2″][Phe(2-CF3)][Bta]Q-NH2 (staple 1-4; staple 4-11 (inferred)) [I-1341]
Second: [αAllylPro]D[tBuAla][B5(4)]D[Phe(3-COOH)]AAFF[PyrS2″][Phe(2-CF3)][Bta]S-NH2 (staple 1-4; staple 4-11 (inferred)) [I-1342]
The IC50 of the first is 2-fold lower: 3500 nM for the first, 7000 nM for the second.

[αAllylPro]D[tBuAla][B5(4)]D[Phe(3-COOH)]AAFF[PyrS2″][Phe(2-Cl)][Bta]Q-NH2 (staple 1-4; staple 4-11 (inferred)) [I-1338] and [αAllylPro]D[tBuAla][B5(4)]D[Phe(3-COOH)]AAFF[PyrS2″][Phe(2-Cl)][Bta]S-NH2 (staple 1-4; staple 4-11 (inferred)) [I-1339] are within 1.5-fold of each other in IC50: 3600 nM for the first, 5200 nM for the second.

For [αAllylPro]D[tBuAla][B5(4)]D[Phe(3-COOH)]AAFF[PyrS2″][Phe(2-Cl)][Bta][Thr(ol)] (staple 1-4; staple 4-11 (inferred)) [I-1340], the IC50 was 6800 nM.

Molecular target: full-length beta-Catenin (Uniprot ID P35222) (Homo sapiens (Human)) (UniProt P35222)
Experiment: fluorescence polarization competition; competitor 5FAM-TCF4(10-53) probe on full-length beta-catenin
Target sequence in this assay (P35222 whole entry, one chain of several): as the sequence (P35222 whole entry) above

Work on [αAllylPro]D[tBuAla][B5(5)]DDAAFF[PyrS2″][Phe(2-Me)][Bta]Q-NH2 (staple 1-4; staple 4-11 (inferred)) [I-1326] yielded an IC50 of 12 nM.

Molecular target: full-length beta-Catenin (Uniprot ID P35222) (Homo sapiens (Human)) (UniProt P35222)
Experiment: fluorescence polarization competition; full-length beta-catenin, 5FAM-TCF4 10-53 probe as competitor
Target sequence in this assay (P35222 whole entry, one chain of several): as the sequence (P35222 whole entry) above

First: B1
Second: B2
The IC50 of the first is 5.4-fold higher: 27 nM for the first, 5 nM for the second.

B3 and B4 are within 1.5-fold of each other in IC50: 7 nM for the first, 6 nM for the second.

B5 and B6 are within 1.5-fold of each other in IC50: 41 nM for the first, 37 nM for the second.

Molecular target: Bcat-Halo (UniProt P35222)
Experiment: NanoBRET Abs IC50; B-cat-Halo / TCF4-Luc engagement in HEK293 cells

Compared with B1, B2 is 5.3-fold lower in IC50: 29400 nM for the first, 5500 nM for the second.

Compared with B3, B4 is 6-fold higher in IC50: 2700 nM for the first, 16100 nM for the second. The first is the more potent here.

Compared with B5, B6 is higher in IC50: 4700 nM for the first, over 20000 nM for the second.

Molecular target: full-length beta-Catenin (Uniprot ID P35222) (Homo sapiens (Human)) (UniProt P35222)
Experiment: fluorescence polarization competition; full-length beta-catenin, competitor 5FAM-TCF4(10-53) probe
Target sequence in this assay (P35222 2-781 limits assumed): as the sequence (P35222 2-781 limits assumed) above

[αAllylPro]D[tBuAla][B5(5)]DDAAFF[PyrS2″][Phe(2-Me)][Bta]Q-NH2 (staple 1-4; staple 4-11 (inferred)) [I-1326] and [αAllylPro]D[tBuAla][B5(4)]D[Phe(3-COOH)]AAFF[PyrS2″][Phe(2-CF3)][Bta]Q-NH2 (staple 1-4; staple 4-11 (inferred)) [I-1341] are within 1.5-fold of each other in EC50: 12 nM for the first, 17 nM for the second.

First: [αAllylPro]D[tBuAla][B5(4)]D[Phe(3-COOH)]AAFF[PyrS2″][Phe(2-CF3)][Bta]S-NH2 (staple 1-4; staple 4-11 (inferred)) [I-1342]
Second: [αAllylPro]D[tBuAla][B5(4)]D[Phe(3-COOH)]AAFF[PyrS2″][Phe(2-Cl)][Bta]Q-NH2 (staple 1-4; staple 4-11 (inferred)) [I-1338]
The EC50 of the first is 3.5-fold higher: 35 nM for the first, 10 nM for the second. The second is the more potent here.

First: [αAllylPro]D[tBuAla][B5(4)]D[Phe(3-COOH)]AAFF[PyrS2″][Phe(2-Cl)][Bta]S-NH2 (staple 1-4; staple 4-11 (inferred)) [I-1339]
Second: [αAllylPro]D[tBuAla][B5(4)]D[Phe(3-COOH)]AAFF[PyrS2″][Phe(2-Cl)][Bta][Thr(ol)] (staple 1-4; staple 4-11 (inferred)) [I-1340]
The EC50 of the first is 4.8-fold lower: 33 nM for the first, 159 nM for the second.

Molecular target: full-length beta-Catenin (Uniprot ID P35222) (Homo sapiens (Human)) (UniProt P35222)
Experiment: cell-based or functional assay
Target sequence in this assay (P35222 whole entry, one chain of several): as the sequence (P35222 whole entry) above

B2 was tested, and the DLD1 4% Abs IC50 was 4100 nM.

Molecular target: B-cat-Halo (beta-catenin HaloTag NanoBRET construct expressed in HEK293 cells) (UniProt P35222)
Sequence (P35222 whole entry): as above
Experiment: NanoBRET Abs IC50 in HEK293 cells; Bcat-Halo, competitor TCF4-Luc

First: [αAllylPro]D[tBuAla][B5(5)]DDAAFF[PyrS2″][Phe(2-Me)][Bta]Q-NH2 (staple 1-4; staple 4-11 (inferred)) [I-1326]
Second: [αAllylPro]D[tBuAla][B5(4)]D[Phe(3-COOH)]AAFF[PyrS2″][Phe(2-CF3)][Bta]Q-NH2 (staple 1-4; staple 4-11 (inferred)) [I-1341]
The IC50 of the first is 1.8-fold higher: 6200 nM for the first, 3500 nM for the second. The second is the more potent here.

First: [αAllylPro]D[tBuAla][B5(4)]D[Phe(3-COOH)]AAFF[PyrS2″][Phe(2-CF3)][Bta]S-NH2 (staple 1-4; staple 4-11 (inferred)) [I-1342]
Second: [αAllylPro]D[tBuAla][B5(4)]D[Phe(3-COOH)]AAFF[PyrS2″][Phe(2-Cl)][Bta]Q-NH2 (staple 1-4; staple 4-11 (inferred)) [I-1338]
The IC50 of the first is 1.9-fold higher: 7000 nM for the first, 3600 nM for the second.

[αAllylPro]D[tBuAla][B5(4)]D[Phe(3-COOH)]AAFF[PyrS2″][Phe(2-Cl)][Bta]S-NH2 (staple 1-4; staple 4-11 (inferred)) [I-1339] and [αAllylPro]D[tBuAla][B5(4)]D[Phe(3-COOH)]AAFF[PyrS2″][Phe(2-Cl)][Bta][Thr(ol)] (staple 1-4; staple 4-11 (inferred)) [I-1340] are within 1.5-fold of each other in IC50: 5200 nM for the first, 6800 nM for the second.
